± gives the uncertainty stated by the source.
B1: COUP transcription factor 1, residues 83 to 159; numbered along this chain, P10589 (parent)
chain: HIECVVCGDKSSGKHYGQFTCEGCKSFFKRSVRRNLTYTCRANRNCPIDQHHRNQCQYCRLKKCLKVGMRREAVQRG

Variants of: B1
Assay: abundance fitness (aPCA) (normalised: wild type 0, dead -1); higher = more abundant; growth selection in yeast, the domain comes from the species named
Details: Homo sapiens

| Variant | abundance fitness |
| --- | --- |
| HIECVVCGDKSSGKHYGQFTCEGWKSFFKRSVRRNLTYTCRANRNCPIDQHHRNQCQYCRLKKCLKVGMRREAVQRG [C24W] | -0.707 ± 0.09 |
| HIECVVCGDKSSGKHYGQFTCEGCKSFFKRSVARNLTYTCRANRNCPIDQHHRNQCQYCRLKKCLKVGMRREAVQRG [R33A] | 0.142 ± 0.042 |
| HIECVVCGDKSSGKHYGQFTCEGCKSFFKRSVRRNLTYTCRANRNCPIDQTHRNQCQYCRLKKCLKVGMRREAVQRG [H51T] | -0.091 ± 0.063 |
| HIECVVCGDKSSGKHYGQFTCEGCKSFFKRSVRRNLTYTCRANRNCPIDQHIRNQCQYCRLKKCLKVGMRREAVQRG [H52I] | 0.07 ± 0.047 |
| HIECVVCGDKSSGKHYGQFTCEGCKSFFKRSVRRNLTYTCRANRNCPIDQHYRNQCQYCRLKKCLKVGMRREAVQRG [H52Y] | -0.225 ± 0.067 |
| HIECVVCGDKSSGKQYGQFTCEGCKSFFKRSVRRNLTYTCRANRNCPIDQHHRNQCQYCRLKKCLKVGMRREAVQRG [H15Q] | -0.052 ± 0.17 |
| HIECVVCGDKSSGKHYGQFTCEGCKSFRKRSVRRNLTYTCRANRNCPIDQHHRNQCQYCRLKKCLKVGMRREAVQRG [F28R] | -0.698 ± 0.073 |
| HIEVVVCGDKSSGKHYGQFTCEGCKSFFKRSVRRNLTYTCRANRNCPIDQHHRNQCQYCRLKKCLKVGMRREAVQRG [C4V] | -0.672 ± 0.078 |
| HIECVVCHDKSSGKHYGQFTCEGCKSFFKRSVRRNLTYTCRANRNCPIDQHHRNQCQYCRLKKCLKVGMRREAVQRG [G8H] | -0.22 ± 0.18 |
| HIECVVCVDKSSGKHYGQFTCEGCKSFFKRSVRRNLTYTCRANRNCPIDQHHRNQCQYCRLKKCLKVGMRREAVQRG [G8V] | -0.791 ± 0.17 |
| HIECVVCWDKSSGKHYGQFTCEGCKSFFKRSVRRNLTYTCRANRNCPIDQHHRNQCQYCRLKKCLKVGMRREAVQRG [G8W] | -0.218 ± 0.11 |
| HIECVVCGDKSSGKHYGQFTCEGCKSFFKRSVRRNLTYTCRANRNCPIDQHHRNQCQYCRLKKCLKVGMRREARQRG [V74R] | -0.449 ± 0.044 |
| HIECVVCGDKSSGKHYGQFTCEGCKSFFKRHVRRNLTYTCRANRNCPIDQHHRNQCQYCRLKKCLKVGMRREAVQRG [S31H] | -0.176 ± 0.12 |
| HIECVVCGDKSSGKHYGQFTCEGCKSFFKRSVRRNLTYTCRANRNCPIDQHHRNQCVYCRLKKCLKVGMRREAVQRG [Q57V] | -0.567 ± 0.084 |
| HIECVVCGDKSSGKHYGQFTCEGCKSFFKRSVRRNLTYTCRANRNCPSDQHHRNQCQYCRLKKCLKVGMRREAVQRG [I48S] | -0.286 ± 0.052 |
| LIECVVCGDKSSGKHYGQFTCEGCKSFFKRSVRRNLTYTCRANRNCPIDQHHRNQCQYCRLKKCLKVGMRREAVQRG [H1L] | 0.03 ± 0.14 |
| HIECVVCGDKASGKHYGQFTCEGCKSFFKRSVRRNLTYTCRANRNCPIDQHHRNQCQYCRLKKCLKVGMRREAVQRG [S11A] | -0.184 ± 0.056 |
| HIECVVCGDKSSGKHYGQFTCEGCKSFFKRSERRNLTYTCRANRNCPIDQHHRNQCQYCRLKKCLKVGMRREAVQRG [V32E] | -0.072 ± 0.067 |

| Variant | abundance fitness |
| --- | --- |
| HIECVVCGDKSSGKHYGQFTCEGCKSFFKRSSRRNLTYTCRANRNCPIDQHHRNQCQYCRLKKCLKVGMRREAVQRG [V32S] | -0.336 ± 0.067 |
| HIECVVCGDKSSGKHYGQFTCEGCKSFFKRSYRRNLTYTCRANRNCPIDQHHRNQCQYCRLKKCLKVGMRREAVQRG [V32Y] | -0.062 ± 0.17 |
| HIECVVCGDKSSGKHYGQFTCEGCKSFFKRSVRRNLTYTCRANRNCPIDTHHRNQCQYCRLKKCLKVGMRREAVQRG [Q50T] | -0.076 ± 0.069 |
| HIECVVCGDKSSGKHYGQFTCEGCKSFFKRSVRRNLTYTCRANRNCPIDMHHRNQCQYCRLKKCLKVGMRREAVQRG [Q50M] | -0.088 ± 0.062 |
| HIECVVCGDKSSGKHYGQFTEEGCKSFFKRSVRRNLTYTCRANRNCPIDQHHRNQCQYCRLKKCLKVGMRREAVQRG [C21E] | -0.929 ± 0.15 |
| HIECVVCGDKSSGKHYGQFTHEGCKSFFKRSVRRNLTYTCRANRNCPIDQHHRNQCQYCRLKKCLKVGMRREAVQRG [C21H] | -0.775 ± 0.36 |
| HIECVVCGDKSSGKHYGQFTCEGCKSFFKRSVRRNLTYTCRANRNCPIWQHHRNQCQYCRLKKCLKVGMRREAVQRG [D49W] | -0.13 ± 0.069 |
| HIECVVCGDKSSGKHYGQFTCEGCKSFFKRSVRRNLTYTCRANRNCPINQHHRNQCQYCRLKKCLKVGMRREAVQRG [D49N] | -0.003 ± 0.052 |
| HIECVVCGDKSSGKHYGQFTCEGCKSFFKRSVRRNLTYTCRANRNCPIQQHHRNQCQYCRLKKCLKVGMRREAVQRG [D49Q] | -0.083 ± 0.078 |
| HIECVVCGDKSSGKHYGQFTCEGCKSFFKRSVRRNLTYTRRANRNCPIDQHHRNQCQYCRLKKCLKVGMRREAVQRG [C40R] | -0.864 ± 0.081 |
| HIECVVCGDKSSGKHYGQFTCEGCKSFFKRSVRRNLTYTPRANRNCPIDQHHRNQCQYCRLKKCLKVGMRREAVQRG [C40P] | -0.941 ± 0.17 |
| HIECVVCGDKSSGKHYGQFTCEGCKSFFKRSVRRNLTYTCDANRNCPIDQHHRNQCQYCRLKKCLKVGMRREAVQRG [R41D] | 0.085 ± 0.12 |
| HIECVVCGDKSSGKHYGQFTCEGCKSFFKRSVRPNLTYTCRANRNCPIDQHHRNQCQYCRLKKCLKVGMRREAVQRG [R34P] | -0.308 ± 0.2 |
| HIECVVCGDKSSGKHYGQFTCEGCKSFFKRSVRRNLTYTCRANRNCPIDQHHRGQCQYCRLKKCLKVGMRREAVQRG [N54G] | -0.153 ± 0.039 |
| HIECVVCGDKSSGKHYGQFTCEGCKSFFKRSVRRNLTYTCRANRNCPIDQHHRQQCQYCRLKKCLKVGMRREAVQRG [N54Q] | -0.091 ± 0.057 |
| HIECVVCGDKSSGKHYGQFTCEGCKSFFKRSVRRNLTYTCRANRNCPIDQHHRCQCQYCRLKKCLKVGMRREAVQRG [N54C] | -0.314 ± 0.11 |
| HIECVVCGDKSSGKHYGQFTCEGCKSFFKRSVRRNLTYTCRANRNCPIDQHHRNQFQYCRLKKCLKVGMRREAVQRG [C56F] | -0.506 ± 0.17 |
| HIECVVCGDKSSGKHYGQFTCEGCKSYFKRSVRRNLTYTCRANRNCPIDQHHRNQCQYCRLKKCLKVGMRREAVQRG [F27Y] | -0.61 ± 0.35 |
